Source: patent US20160194394A1 (GOVERNING COUNCIL OF THE UNIVERSITY OF TORONTO, published 2016)
Where a chain is given by its changes, count along the chain named. Read-outs that look alike come from different tables or passages of the source.

T1: human Fzd8-Fc
T1 construct: also called FZD8 ECD; Fzd8 CRD-Fc fusion protein (R&D systems); not shown: exact vendor limits of the CRD construct
T1 chain: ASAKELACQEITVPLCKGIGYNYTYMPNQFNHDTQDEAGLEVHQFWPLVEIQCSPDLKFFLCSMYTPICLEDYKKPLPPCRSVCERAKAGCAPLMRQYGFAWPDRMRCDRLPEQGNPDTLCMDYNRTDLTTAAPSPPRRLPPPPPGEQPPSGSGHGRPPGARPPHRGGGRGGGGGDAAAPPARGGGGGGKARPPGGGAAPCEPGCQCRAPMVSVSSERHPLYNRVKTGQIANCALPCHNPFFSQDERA

T2: human Fzd5-Fc
T2 construct: also called FZD5 ECD; Fzd5 CRD-Fc fusion protein (R&D systems); not shown: exact vendor limits of the CRD construct
T2 chain: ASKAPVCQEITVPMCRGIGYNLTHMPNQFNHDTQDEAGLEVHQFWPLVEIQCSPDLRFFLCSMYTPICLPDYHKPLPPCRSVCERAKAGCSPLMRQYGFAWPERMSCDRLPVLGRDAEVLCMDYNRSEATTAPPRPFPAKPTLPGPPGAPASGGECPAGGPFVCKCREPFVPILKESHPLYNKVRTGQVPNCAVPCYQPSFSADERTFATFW

B1: Fab H1 (Fab)
chain 1: EVQLVESGGGLVQPGGSLRLSCAASGFNISSSYIHWVRQAPGKGLEWVAYIYSSYGSTYYADSVKGRFTISADTSKNTAYLQMNSLRAEDTAVYYCARASWYALDYWGQGTLVTVSSASTKGPSVFPLAPSSKSTSGGTAALGCLVKDYFPEPVTVSWNSGALTSGVHTFPAVLQSSGLYSLSSVVTVPSSSLGTQTYICNVNHKPSNTKVDKKVEPKSC
chain 2: DIQMTQSPSSLSASVGDRVTITCRASQSVSSAVAWYQQKPGKAPKLLIYSASSLYSGVPSRFSGSRSGTDFTLTISSLQPEDFATYYCQQYWYGVAPITFGQGTKVEIKRTVAAPSVFIFPPSDSQLKSGTASVVCLLNNFYPREAKVQWKVDNALQSGNSQESVTEQDSKDSTYSLSSTLTLSKADYEKHKVYACEVTHQGLSSPVTKSFNRGECGGS
B2: Fab E4 (Fab)
chain 1: EVQLVESGGGLVQPGGSLRLSCAASGFNLSYYSMHWVRQAPGKGLEWVASIYPSYGYTYYADSVKGRFTISADTSKNTAYLQMNSLRAEDTAVYYCARPSPGSYHGMDYWGQGTLVTVSSASTKGPSVFPLAPSSKSTSGGTAALGCLVKDYFPEPVTVSWNSGALTSGVHTFPAVLQSSGLYSLSSVVTVPSSSLGTQTYICNVNHKPSNTKVDKKVEPKSC
chain 2: DIQMTQSPSSLSASVGDRVTITCRASQSVSSAVAWYQQKPGKAPKLLIYSASSLYSGVPSRFSGSRSGTDFTLTISSLQPEDFATYYCQQSSYSLITFGQGTKVEIKRTVAAPSVFIFPPSDSQLKSGTASVVCLLNNFYPREAKVQWKVDNALQSGNSQESVTEQDSKDSTYSLSSTLTLSKADYEKHKVYACEVTHQGLSSPVTKSFNRGECGGS
B3: IgG E8 (antibody, V domains shown)
VH: EVQLVESGGGLVQPGGSLRLSCAASGFNIYSSYIHWVRQAPGKGLEWVAYIYSYSGYTYYADSVKGRFTISADTSKNTAYLQMNSLRAEDTAVYYCARWYHPYWYASAIDYWGQGTLVTVSS
VL: DIQMTQSPSSLSASVGDRVTITCRASQSVSSAVAWYQQKPGKAPKLLIYSASSLYSGVPSRFSGSRSGTDFTLTISSLQPEDFATYYCQQVSGGGGLITFGQGTKVEIK
B4: IgG D10 (antibody, V domains shown)
VL: DIQMTQSPSSLSASVGDRVTITCRASQSVSSAVAWYQQKPGKAPKLLIYSASSLYSGVPSRFSGSRSGTDFTLTISSLQPEDFATYYCQQYWAPITFGQGTKVEIK
VH: EVQLVESGGGLVQPGGSLRLSCAASGFNIYYYYMHWVRQAPGKGLEWVASIYSYSGSTYYADSVKGRFTISADTSKNTAYLQMNSLRAEDTAVYYCARYASYVGYYPWALDYWGQGTLVTVSS
notes: Fab converted into full-length IgG1, made in 293F cells
B5: IgG G6 (antibody, V domains shown)
VL: B4 VL with W92Y, A93S, P94L, I95F
VH: EVQLVESGGGLVQPGGSLRLSCAASGFNIYYYSMHWVRQAPGKGLEWVAYISPSYGYTYYADSVKGRFTISADTSKNTAYLQMNSLRAEDTAVYYCARGYFYSWGGMDYWGQGTLVTVSS
notes: as for B4

Assays:
[1] = biological target: T3, recombinant Frizzled receptor 7 (FZD7) cysteine-rich domain (CRD) fused to the Fc region of human IgG (human, UniProt O75084 33-185); assay: competitive ELISA, detected phage-Fab A1
[2] = biological target: T3, recombinant Frizzled receptor 7 (FZD7) …; assay: competitive ELISA, detected phage-Fab G2
[3] = biological target: T4, FZD7 receptor expressed on cells (full-length) (UniProt O75084 33-574, limits assumed); assay: flow cytometry, 200 nM Fab, FZD7 over-expression line (MDA MB 231) [cont'd]
T4 construct: whole, on cells; MDA MB 231 cells may carry other Frizzled receptors too; also called full-length FZD7 receptor; endogenous receptor on MDA MB 231 cells
Summary of the method: (§1)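 EDTA-harvested MDA MB 231 cells, either FZD7-overexpressing or with endogenous receptor, were blocked in 2% FBS/PBS and stained with Fab for 30 min on ice. Detection used anti-F(ab′)₂-APC (1:1000, 15 min on ice), then 1% paraformaldehyde fixation and flow cytometry. Values are percent of cells in positive gates.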

[4] = biological target: T3, recombinant Frizzled receptor 7 (FZD7) …; assay: ELISA, 10ug/ml (200nM) Fab [cont'd]
Summary of the method: (§2)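 Plates coated with 2 ug/ml FZD7-Fc or Fc protein were probed with bacterially expressed purified Fabs for 1 h at room temperature in 0.5% BSA/0.05% Tween20/PBS. Bound Fab detected with anti-FLAG-HRP for 45 min, developed with TMB and acid stop, and read as absorbance at 450 nm; n.t. = not tested.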

[5] = biological target: T3, recombinant Frizzled receptor 7 (FZD7) …; assay: competitive ELISA, detected phage-Fab H1
[6] = biological target: T3, recombinant Frizzled receptor 7 (FZD7) …; assay: competitive ELISA, detected phage-Fab E4
[7] = biological target: T3, recombinant Frizzled receptor 7 (FZD7) …; assay: competitive ELISA, detected phage-Fab H3
mouse Fzd2-Fc = biological target: T5, mouse Fzd2-Fc; assay: SPR
T5 construct: also called mFZD2 ECD; Fzd2 CRD-Fc fusion protein (R&D systems); not shown: exact vendor limits of the CRD construct
T5 sequence (chain, as listed by the source limits assumed): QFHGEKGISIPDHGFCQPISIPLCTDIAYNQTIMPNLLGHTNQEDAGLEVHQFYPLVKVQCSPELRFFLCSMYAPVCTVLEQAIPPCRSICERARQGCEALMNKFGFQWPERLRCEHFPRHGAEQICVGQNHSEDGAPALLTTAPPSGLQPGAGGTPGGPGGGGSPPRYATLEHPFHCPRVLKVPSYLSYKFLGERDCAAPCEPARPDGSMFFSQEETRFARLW

human Fzd1-Fc = biological target: T6, human Fzd1-Fc; assay: SPR
T6 construct: also called FZD1 ECD; Fzd1 CRD-Fc fusion protein (R&D systems); not shown: exact vendor limits of the CRD construct
T6 sequence (chain, as listed by the source limits assumed): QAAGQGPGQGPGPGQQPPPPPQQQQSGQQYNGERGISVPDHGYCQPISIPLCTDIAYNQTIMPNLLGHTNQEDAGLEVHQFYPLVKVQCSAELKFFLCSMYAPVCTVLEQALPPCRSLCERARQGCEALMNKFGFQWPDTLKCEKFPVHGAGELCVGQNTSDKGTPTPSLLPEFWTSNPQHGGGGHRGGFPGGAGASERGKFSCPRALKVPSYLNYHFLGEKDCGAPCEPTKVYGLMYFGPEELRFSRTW

[8] = biological target: T3, recombinant Frizzled receptor 7 (FZD7) …; assay: SPR
[9] = biological target: T3, recombinant Frizzled receptor 7 (FZD7) …; assay: competitive ELISA, detected phage-Fab D10
[10] = biological target: T3, recombinant Frizzled receptor 7 (FZD7) …; assay: competitive ELISA, detected phage-Fab H10
[11] = biological target: T3, recombinant Frizzled receptor 7 (FZD7) …; assay: SPR; remark: listed apart in the source
[12] = biological target: T3, recombinant Frizzled receptor 7 (FZD7) …; assay: competitive ELISA, detected phage-Fab G6
[13] = biological target: T4, FZD7 receptor expressed on cells …; assay: flow cytometry, 200 nM Fab, MDA MB 231 [cont'd]
Summary of the method: as §1

[14] = biological target: T3, recombinant Frizzled receptor 7 (FZD7) …; assay: competitive ELISA, detected phage-Fab E8
[15] = biological target: T4, FZD7 receptor expressed on cells …; assay: cell-based or functional assay
[16] = biological target: T3, recombinant Frizzled receptor 7 (FZD7) …; assay: ELISA, 1ug/ml (20nM) Fab [cont'd]
Summary of the method: as §2

human Fzd8-Fc = biological target: T1, human Fzd8-Fc; assay: SPR
human Fzd5-Fc = biological target: T2, human Fzd5-Fc; assay: SPR
[17] = biological target: T4, FZD7 receptor expressed on cells …; assay: cell-based or functional assay; remark: listed apart in the source
[18] = biological target: recombinant Frizzled receptor 7 (FZD7) cysteine-rich domain (CRD) fused to the Fc region of human IgG (human, UniProt O75084 33-185); assay: SPR; remark: listed apart in the source

| Binder | % of Fab phage in presence of 750 nM Fab [1] | % of Fab phage in presence of 750 nM Fab [2] | % population within the positive gate [3] | OD 450 [4] | % of Fab phage in presence of 750 nM Fab [5] | % of Fab phage in presence of 750 nM Fab [6] | % of Fab phage in presence of 750 nM Fab [7] | Kd (mouse Fzd2-Fc) | Kd (human Fzd1-Fc) | Kd [8] | % of Fab phage in presence of 750 nM Fab [9] | % of Fab phage in presence of 750 nM Fab [10] | Kd [11] | koff [11] | kon [11] | % of Fab phage in presence of 750 nM Fab [12] | % population within the positive gate [13] | % of Fab phage in presence of 750 nM Fab [14] | decrease in Wnt 3a-induced transcriptional activity (TOP-FLASH luciferase reporter in MDA MB 231 cells, 400 nM Fab) [15] | OD 450 [16] | also measured |
| --- | --- | --- | --- | --- | --- | --- | --- | --- | --- | --- | --- | --- | --- | --- | --- | --- | --- | --- | --- | --- | --- |
| B1 | 4.5% | 4.5% | 94.7% | 3.19 | 8.5% | 12% | 18.3% | 0.57 nM | 0.64 nM | 0.54 nM | 4.7% | 4.3% | 0.537 nM | 0.000457 s⁻¹ | 852000 M⁻¹ s⁻¹ | 10.4% | 99% | 6.7% | > 70% | 3.2 | – |
| B2 | 6.5% | 4.6% | 93.4% | 3.27 | 21.9% | 5.1% | 10.5% | 0.65 nM | 0.33 nM | 0.42 nM | 6.1% | 3.2% | 0.422 nM | 0.000803 s⁻¹ | 1.9e+06 M⁻¹ s⁻¹ | 7.4% | 98.8% | 5.9% | > 70% | 3.24 | Kd (human Fzd8-Fc): 0.88 nM; Kd (human Fzd5-Fc): 1.43 nM |
| B3 | – | – | – | – | – | – | – | – | – | – | – | – | – | – | – | – | – | – | – | – | IC50, Wnt3a-induced Top Flash reporter (% ligand mediated) [17]: 106 nM |
| B4 | – | – | – | – | – | – | – | – | – | – | – | – | – | – | – | – | – | – | – | – | Kd [18]: 1.45 nM; IC50, Wnt3a-induced Top Flash reporter (% ligand mediated) [17]: 123 nM |
| B5 | – | – | – | – | – | – | – | – | – | – | – | – | – | – | – | – | – | – | – | – | Kd [18]: 0.3 nM |
